Measurements: patent US20220213227A1 (published 2022)
Changes are numbered by the printed parent chain.

Columns and labels:
Assay in all cases: cell-based or functional assay
[1] = target: T1, human EGFR on cells (human, UniProt P00533 25-1210)
[2] = target: T1, human EGFR on cells; remark: listed apart in the source
[3] = target: T2, human CD20 on cells (human, UniProt P11836 1-297)
T2 sequence (looked up): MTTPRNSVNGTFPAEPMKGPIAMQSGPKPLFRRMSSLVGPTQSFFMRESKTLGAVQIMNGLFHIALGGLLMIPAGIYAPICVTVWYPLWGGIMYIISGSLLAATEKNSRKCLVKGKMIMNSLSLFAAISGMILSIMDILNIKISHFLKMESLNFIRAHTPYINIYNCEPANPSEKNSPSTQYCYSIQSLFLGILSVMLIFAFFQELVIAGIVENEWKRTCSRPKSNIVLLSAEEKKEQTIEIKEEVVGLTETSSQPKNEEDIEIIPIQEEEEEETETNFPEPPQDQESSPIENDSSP

B1: VECTIBIX (panitumumab)/hSP34 BEAT (bispecific antibody)
VH: QVQLQESGPGLVKPSETLSLTCTVSGGSVSSGDYYWTWIRQSPGKGLEWIGHIYYSGNTNYNPSLKSRLTISIDTSKTQFSLKLSSVTAADTAIYYCVRDRVTGAFDIWGQGTMVTVSS
VL: DIQMTQSPSSLSASVGDRVTITCQASQDISNYLNWYQQKPGKAPKLLIYDASNLETGVPSRFSGSGSGTDFTFTISSLQPEDIATYFCQHFDHLPLAFGGGTKVEIK
chain: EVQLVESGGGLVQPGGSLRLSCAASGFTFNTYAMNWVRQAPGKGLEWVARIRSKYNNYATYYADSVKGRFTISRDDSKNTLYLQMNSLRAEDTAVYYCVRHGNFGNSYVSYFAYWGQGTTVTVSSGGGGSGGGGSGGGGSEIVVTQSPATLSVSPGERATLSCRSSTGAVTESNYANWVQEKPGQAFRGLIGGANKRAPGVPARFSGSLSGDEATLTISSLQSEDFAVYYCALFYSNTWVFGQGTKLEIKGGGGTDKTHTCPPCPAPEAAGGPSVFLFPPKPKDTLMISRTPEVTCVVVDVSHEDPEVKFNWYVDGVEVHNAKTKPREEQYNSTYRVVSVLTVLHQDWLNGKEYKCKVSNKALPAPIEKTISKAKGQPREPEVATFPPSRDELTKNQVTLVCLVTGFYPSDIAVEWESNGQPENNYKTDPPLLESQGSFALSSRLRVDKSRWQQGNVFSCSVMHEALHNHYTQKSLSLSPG
In the case of B1, the “EC50 of redirected T-cell lysis of A549 cells” value [1] is reported as 0.613 pM, the “EC50 of redirected T-cell lysis of HCC827 cells (value of the text, differs from the table)” value [1] is reported as 0.156 pM and the “EC50 (X)/EC50 (HCC827), HCT116 cells” value [2] is reported as 2.3 ratio. For the same binder, the “EC50 (X)/EC50 (HCC827), MCF7 cells” value [2] was 4300 ratio, the “EC50 (X)/EC50 (HCC827), SW480 cells” value [2] was 47.9 ratio and the “EC50 of redirected T-cell lysis of HCC827 cells” value [2] was 0.146 pM. The “EC50 of redirected T-cell lysis of HCT116 cells” value [2] was 0.341 pM, the “EC50 of redirected T-cell lysis of MCF7 cells” value [2] was 627 pM and the “EC50 of redirected T-cell lysis of SW480 cells” value [2] was 6.99 pM.

B2: BEAT CD20/CD3 (SP34) antibody (bispecific antibody)
heavy: QVQLQQPGAELVKPGASVKMSCKASGYTFTSYNMHWVKQTPGRGLEWIGAIYPGNGDTSYNQKFKGKATLTADKSSSTAYMQLSSLTSEDSAVYYCARSTYYGGDWYFNVWGAGTTVTVSAASTKGPSVFPLAPSSKSTSGGTAALGCLVKDYFPEPVTVSWNSGALTSGVHTFPAVLQSSGLYSLSSVVTVPSSSLGTQTYICNVNHKPSNTKVDKKVEPKSCDKTHTCPPCPAPEAAGGPSVFLFPPKPKDTLMISRTPEVTCVVVDVSHEDPEVQFKWYVDGVEVHNAKTKPREEQYNSTFRVVSVLTVLHQDWLNGKEYKCKVSNKALPAPIEKTISKTKGQPREPAVYTLPPSREEMTKNQVKLVCLVTGFYPSDIAVEWESSGQPENNYYTTPPMLDSDGSFSLVSWLNVDKSRWQQGNIFSCSVMHEALHNRFTQKSLSLSPGK
light: QIVLSQSPAILSASPGEKVTMETTCRASSSVSYIHWFQQKPGSSPKPWIYATSNLASGVPVRFSGSGSGTSYSLTISRVEAEDAATYYCQQWTSNPPTFGGGTKLEIKRTVAAPSVFIFPPSDEQLKSGTASVVCLLNNFYPREAKVQWKVDNALQSGNSQESVTEQDSKDSTYSLSSTLTLSKADYEKHKVYACEVTHQGLSSPVTKSFNRGEC
chain: not shown
With B2 the “EC50 of T cell redirected killing of Daudi cells (RDL-FACS)” value [3] was 25 pM.

B3: CD3/CD20 BEAT (SP34 scFv H5/L65 with Rituximab FAB arm) (bispecific antibody)
VH: EVQLVESGGGLVQPGGSLRLSCAASGYTFTSYNMSWVRQAPGKGLEWVSAIYPGNGDTYYADSVKGRFTISRDNSKNTLYLQMNSLRAEDTAVYYCARSTYYGGDWYFNVWGQGTLVTVSS
VL: B3 VH with V48I, S49G, F68A, I70L, R72A, N74K, L79A
chain: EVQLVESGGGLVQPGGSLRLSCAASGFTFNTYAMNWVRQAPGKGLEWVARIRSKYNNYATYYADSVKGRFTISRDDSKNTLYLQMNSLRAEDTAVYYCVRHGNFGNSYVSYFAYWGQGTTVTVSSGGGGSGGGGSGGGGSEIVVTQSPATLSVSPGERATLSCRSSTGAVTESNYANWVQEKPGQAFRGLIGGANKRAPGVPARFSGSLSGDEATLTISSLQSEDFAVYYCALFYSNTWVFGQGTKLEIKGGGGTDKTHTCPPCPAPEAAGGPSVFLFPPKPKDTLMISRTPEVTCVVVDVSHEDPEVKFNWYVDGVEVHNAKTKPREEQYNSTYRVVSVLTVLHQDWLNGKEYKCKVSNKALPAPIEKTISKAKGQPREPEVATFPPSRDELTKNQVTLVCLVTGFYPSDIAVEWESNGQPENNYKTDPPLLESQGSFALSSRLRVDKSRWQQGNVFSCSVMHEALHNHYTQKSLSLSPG
B3 was tested, and the “EC50 of T cell redirected killing of Raji cells (RDL-FACS)” value [3] was 37.6 pM.
